From patent publication US20260049134A1 (UNIVERSITY OF FLORIDA RESEARCH FOUNDATION, published 2026)

T1: CADM1, endogenous in H929 multiple myeloma cells (human, UniProt Q9BY67 45-442)
T1 construct: Native protein on H929 cells (flow cytometry, siRNA knockdown) and in H929 lysates (IP/MS); RPMI-8226 cells were used for sorting with HW-97; also called IGSF4A
T1 sequence: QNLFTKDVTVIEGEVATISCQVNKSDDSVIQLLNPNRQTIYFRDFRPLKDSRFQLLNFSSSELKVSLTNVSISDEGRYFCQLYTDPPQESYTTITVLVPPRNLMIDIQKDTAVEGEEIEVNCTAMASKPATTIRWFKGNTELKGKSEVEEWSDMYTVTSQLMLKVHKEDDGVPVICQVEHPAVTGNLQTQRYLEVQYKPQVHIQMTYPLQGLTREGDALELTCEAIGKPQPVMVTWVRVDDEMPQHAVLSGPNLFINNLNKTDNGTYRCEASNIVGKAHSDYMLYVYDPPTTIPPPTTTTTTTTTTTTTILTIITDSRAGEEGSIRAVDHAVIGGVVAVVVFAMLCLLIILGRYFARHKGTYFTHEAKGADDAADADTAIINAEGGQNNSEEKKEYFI


How the values were obtained:
[1] = target: T2, ICAM1, endogenous in H929 multiple myeloma cells (human, UniProt P05362 28-532); experiment: flow cytometry, H929 + NT Green siRNA; None 416
T2 construct: Native protein on H929 cells (flow cytometry, siRNA knockdown) and in H929 lysates (IP/MS); also called CD54

[2] = target: T2, ICAM1, endogenous in H929 multiple …; experiment: flow cytometry, H929 + vehicle; None 2.74
[3] = target: T2, ICAM1, endogenous in H929 multiple …; experiment: flow cytometry, IgG1 on H929 cells
Procedure: Staining protocol. Cells were harvested (5×10⁴ cells per sample), washed once with phosphate-buffered saline (PBS) at RT, and a second time with ice-cold FACS buffer (PBS, 0.5% BSA, 2 mM EDTA, 0.1% NaN₃). Cells were stained in 50 μL of primary antibody for 30 min on ice, washed twice with 100 μL FACS buffer, stained with 50 μL of diluted secondary antibody, washed two more times in FACS, and then resuspended in 50 μL FACS buffer. Samples were acquired on an Accuri C6 Plus or a BD FACSCanto II flow cytometer (both from BD Biosciences). Data were analyzed using FlowJo version 10 software. Primary antibodies: Fab (10 μg/mL), IgG1 (0.1 to 50 μg/mL), or 25 μL polyclonal Fabs from periplasmic extracts. Polyclonal Fabs were produced by diluting bacterial stocks by a factor of 100 in autoinduction media and incubating overnight to induce expression as previously described. […] Viability stains: DAPI (Cell Signaling Technology) or SYTOX AADvanced Dead Cell Stain (Thermo Fisher Scientific). Labeling: The panel of chimeric rabbit/human IgG1s was labeled using the Alexa Fluor 647 Labeling Kit (Thermo Fisher Scientific, #A20173) to facilitate single-step staining. Competition: Unlabeled IgG1s were added at saturating concentrations of 60 μg/mL to block the target receptors, incubating on ice for 30 min, followed by the addition of an equal volume of the Alexa Fluor 647 labeled antibody at 2 μg/mL, and the mixture was incubated on ice for another 30 min.

[4] = target: T1, CADM1, endogenous in H929 multiple …; experiment: flow cytometry, H929 + PTPRG siRNA; None 490

T2 sequence (P05362 28-532 limits assumed): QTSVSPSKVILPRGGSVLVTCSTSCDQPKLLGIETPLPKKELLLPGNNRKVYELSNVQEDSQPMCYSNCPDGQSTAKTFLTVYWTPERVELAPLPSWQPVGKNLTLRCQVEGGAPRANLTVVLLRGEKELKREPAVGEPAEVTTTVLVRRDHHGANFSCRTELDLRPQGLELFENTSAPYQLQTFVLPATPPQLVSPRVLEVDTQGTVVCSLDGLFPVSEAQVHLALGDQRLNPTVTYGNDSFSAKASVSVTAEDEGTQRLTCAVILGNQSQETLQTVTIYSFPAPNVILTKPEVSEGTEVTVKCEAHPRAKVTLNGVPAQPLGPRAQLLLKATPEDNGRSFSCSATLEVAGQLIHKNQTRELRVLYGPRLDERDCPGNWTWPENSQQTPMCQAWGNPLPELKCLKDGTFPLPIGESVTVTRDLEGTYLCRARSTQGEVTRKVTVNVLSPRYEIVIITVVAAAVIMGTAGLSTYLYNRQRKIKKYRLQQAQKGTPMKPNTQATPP

mAb binding (MFI) [1] | Cells stained (%) [2] [%] | antibody-bound positive cells (%) [3] [%] | mAb binding (MFI) [4] | Binder
483 | 2.62 |  |  | TH9-0022 (antibody, human IgG1, kappa, L234A L235A, V domains shown, also called TH9-022; negative control) VH: QSLEESGGRLVTPGTPLTLTCTVSGFSLSSYAMNWVRQAPGKGLEWIGIINSYGSTYYASWAKGRFTISKTSTTVDLKITSPTTEDTATYFCARVTYDSYGYGYAPYGMDLWGPGTLVTVSS VL: LVMTQTPSSTSNAVGGTVTIKCQASQSIGNVLAWYQQKPGQPPKLLIYAASTLASGVPSRVGGSRSGTEYTLTISGVQREDAATYYCLGSDSDSDIAFGGGTELEILR
51900 | 99.8 | 95.8 |  | HW-113 chimeric rabbit-human IgG1 LA/LA/PG (antibody, V domains shown, Fc-silenced (L234A/L235A/P329G) IgG1, lambda; Alexa Fluor 647-labeled in single-step flow cytometry) VH: QKQLVESGGGLVQPGGSLTLTCTVSGFSLNKYYMGWFRQAPGKGLEWIGVISRSGDTYYSSWAKGRFTISKASTTVDLRITSPTTEDTATYFCARDASSPGFHGDRLDLWGQGTLVTVSS VL: SFVLTQPASVQVNLGQTVSLTCTADTLSRSYASWYQQKPGQAPVLLIYRDTSRPSGVPDRFSGSSSGNTATLTISGAQAGDEADYYCATSDGIGSNYLWVFGGGTQLTVTG

The next lines start with the binder.

Binder | mAb binding (MFI) [1] | Cells stained (%) [2] [%] | antibody-bound positive cells (%) [3] [%] | mAb binding (MFI) [4]
TH9-0022 (antibody, human IgG1, kappa, L234A L235A, V domains shown, also called TH9-022; negative control IgG1) VH: QSLEESGGRLVTPGTPLTLTCTVSGFSLSSYAMNWVRQAPGKGLEWIGIINSYGSTYYASWAKGRFTISKTSTTVDLKITSPTTEDTATYFCARVTYDSYGYGYAPYGMDLWGPGTLVTVSS VL: LVMTQTPSSTSNAVGGTVTIKCQASQSIGNVLAWYQQKPGQPPKLLIYAASTLASGVPSRVGGSRSGTEYTLTISGVQREDAATYYCLGSDSDSDIAFGGGTELEILR |  |  | 2.7 | 
HW-97 chimeric rabbit-human IgG1 LA/LA/PG (antibody, V domains shown, Fc-silenced (L234A/L235A/P329G) IgG1, lambda; Alexa Fluor 647-labeled in single-step flow cytometry; Prototype of cluster C-97) VH: QKQLVESGGRLVTPGTPLTLTCTVTGIDLSSHGMSWVRQAPGKGLEWIGVIYPSGSTWYASWARGRFTISKTSTTVDLKMTSLTTEDTATHFCARGDVGGADNNIWGPGTLVTVSS VL: SFVLTQPASVQVDLGQTVSLTCTAETLSRSYASWYQQKPGQAPVLLIYRDTSRPSGVPDRFSGSSSGNTATLTISGAQAGDEADYYCATSDGSGSSYQYVFGGGTQLTVTG |  |  |  | 7040
HW-101 chimeric rabbit-human IgG1 LA/LA/PG (antibody, V domains shown, Fc-silenced (L234A/L235A/P329G) IgG1, lambda; Alexa Fluor 647-labeled in single-step flow cytometry; Cluster C-97) VH: QEQLVESGGRLVTPGTPLTLTCKASGFSLGKYDMSWVRQAPGKGLEWIGTIYAGSGSTWYASWAKGRFTISKTSTTVDLKMTSLTTEDTATYFCARDFLGVNSIWGPGTLVTISS VL: SFVLTQPASVQVNLGQTVSLTCTADTLSRSYASWYQQKPDQAPVLLIHRDTSRPSGVPDRFSGSNSGNTATLTISGAQAGDEADYYCATSDGSGSNFHFVFGGGTQLTVTG |  |  |  | 5900
